For series [1], the target named is TNPO1 lacking the disordered acidic loop (TNPO1^Δloop) (human) (UniProt Q92973). The series is described as follows: ITC. Background: Isothermal titration calorimetry measures the heat released or taken up as one component is titrated into another.
Series [2] has as its target Transportin-1 (TNPO1), recombinant full length (human) (UniProt Q92973). Put plainly: ITC.
Series [3] concerns the target Transportin-3 (TNPO3), recombinant full length (human) (UniProt Q9Y5L0). Put plainly: ITC.
Series [4] has the same target. The series is described as follows: ITC. The source holds these as a separate data set.
Series [5] has as its target TNPO1 acidic loop (TNPO1^loop) (human). The series is described as follows: NMR titration.
The next series concerns the target T1, CIRBP RGG (CIRBPRGG) (Homo sapiens, UniProt Q14011 68-137).
T1 sequence: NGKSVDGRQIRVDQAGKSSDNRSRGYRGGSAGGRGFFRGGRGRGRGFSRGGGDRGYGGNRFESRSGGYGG
The series is described as follows: NMR.

The target in series [6] is T2, Transportin-3 (TNPO3), recombinant full length (human, UniProt Q9Y5L0 1-923).
T2 sequence (looked up): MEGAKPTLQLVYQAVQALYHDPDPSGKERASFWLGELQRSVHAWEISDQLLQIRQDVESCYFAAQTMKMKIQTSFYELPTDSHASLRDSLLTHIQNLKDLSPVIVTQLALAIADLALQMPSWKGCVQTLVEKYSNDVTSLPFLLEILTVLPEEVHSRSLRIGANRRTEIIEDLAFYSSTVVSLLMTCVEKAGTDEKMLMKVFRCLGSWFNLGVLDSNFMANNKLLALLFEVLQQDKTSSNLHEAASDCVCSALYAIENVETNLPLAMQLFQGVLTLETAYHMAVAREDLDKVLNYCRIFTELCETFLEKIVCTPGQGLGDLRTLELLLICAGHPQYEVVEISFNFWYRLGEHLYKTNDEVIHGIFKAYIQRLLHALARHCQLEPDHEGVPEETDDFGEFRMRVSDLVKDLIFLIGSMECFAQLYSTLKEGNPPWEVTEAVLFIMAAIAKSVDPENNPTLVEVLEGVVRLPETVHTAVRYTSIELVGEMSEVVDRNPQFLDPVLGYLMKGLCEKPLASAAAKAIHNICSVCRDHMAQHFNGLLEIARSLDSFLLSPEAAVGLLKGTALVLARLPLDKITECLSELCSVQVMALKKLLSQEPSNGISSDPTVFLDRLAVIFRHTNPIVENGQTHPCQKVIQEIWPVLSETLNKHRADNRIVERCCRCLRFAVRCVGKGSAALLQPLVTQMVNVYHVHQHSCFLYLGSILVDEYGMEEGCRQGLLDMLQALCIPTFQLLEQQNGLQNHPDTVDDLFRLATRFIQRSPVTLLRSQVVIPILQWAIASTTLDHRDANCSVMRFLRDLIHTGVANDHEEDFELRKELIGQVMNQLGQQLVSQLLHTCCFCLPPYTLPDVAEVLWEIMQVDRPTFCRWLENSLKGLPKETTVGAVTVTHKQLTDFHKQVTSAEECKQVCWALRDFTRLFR
The series is described as follows: ITC.

By Kd is commonly meant the free concentration of one partner at which half of the binding sites on the other are occupied at equilibrium, for simple one-to-one binding.

Read-outs that look alike come from different tables or passages of the source.

Sequence of TNPO1 lacking the disordered acidic loop (TNPO1^Δloop) (human) (Q92973 whole entry, stated change not applied): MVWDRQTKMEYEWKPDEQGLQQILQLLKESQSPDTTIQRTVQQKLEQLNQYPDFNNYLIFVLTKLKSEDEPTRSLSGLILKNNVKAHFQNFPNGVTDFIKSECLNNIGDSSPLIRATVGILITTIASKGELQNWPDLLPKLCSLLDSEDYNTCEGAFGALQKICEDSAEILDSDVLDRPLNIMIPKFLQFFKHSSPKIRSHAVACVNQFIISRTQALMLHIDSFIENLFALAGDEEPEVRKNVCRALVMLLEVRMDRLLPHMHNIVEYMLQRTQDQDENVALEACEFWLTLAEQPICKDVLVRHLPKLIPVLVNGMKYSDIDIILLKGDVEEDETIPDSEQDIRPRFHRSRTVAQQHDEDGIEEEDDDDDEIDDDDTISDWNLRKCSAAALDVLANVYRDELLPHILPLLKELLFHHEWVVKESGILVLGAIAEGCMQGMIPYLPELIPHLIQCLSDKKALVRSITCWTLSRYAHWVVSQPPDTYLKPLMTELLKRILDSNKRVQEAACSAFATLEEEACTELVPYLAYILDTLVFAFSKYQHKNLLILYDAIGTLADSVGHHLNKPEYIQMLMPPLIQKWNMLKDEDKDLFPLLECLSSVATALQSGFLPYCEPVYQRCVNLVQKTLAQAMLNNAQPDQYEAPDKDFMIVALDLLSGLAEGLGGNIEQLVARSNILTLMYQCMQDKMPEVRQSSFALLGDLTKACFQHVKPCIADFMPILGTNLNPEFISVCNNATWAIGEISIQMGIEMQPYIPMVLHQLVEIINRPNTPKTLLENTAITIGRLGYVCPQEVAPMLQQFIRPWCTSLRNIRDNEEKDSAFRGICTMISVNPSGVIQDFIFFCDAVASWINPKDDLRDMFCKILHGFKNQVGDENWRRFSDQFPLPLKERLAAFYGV
Sequence of Transportin-1 (TNPO1), recombinant full length (human) (Q92973 whole entry): as the sequence (Q92973 whole entry, stated change not applied) above
Sequence of TNPO1 acidic loop (TNPO1^loop) (human) (Q92973 whole entry): as the sequence (Q92973 whole entry, stated change not applied) above

In series [1], “PY-NLS of FUS (FUS^PY-NLS) (domain or fragment)” yielded a dissociation constant Kd of 62 nM and a dH of -20.6 kcal⋅mol^−1. Besides, in series [2], the Kd came to 48 nM and the dH was -21.9 kcal⋅mol^−1.

Take “CIRBP C-terminal RSY-rich region (CIRBP^RSY) (domain or fragment)”: the values for the Kd in series [1], in series [2] and in series [3] were 8080 nM, 7800 nM and 114 nM, respectively. Further, the dH is -19 kcal⋅mol^−1 in series [1], -10 kcal⋅mol^−1 in series [2] and -34.9 kcal⋅mol^−1 in series [3].

In the case of “Cold-inducible RNA-binding protein (CIRBP), full length, untagged (from UniProt Q14011 1-172) (natural protein)”, in series [2], the Kd was 741 nM and the dH is -21 kcal⋅mol^−1.

In the case of “PRMT1-methylated CIRBP RG/RGG region (meCIRBP^RGG) (domain or fragment)”, in series [3], the Kd worked out at 3300 nM and the dH is -23 kcal⋅mol^−1.

As for “CIRBP RG/RGG-rich region (CIRBP^RGG) (domain or fragment)”, the Kd in series [1] is 364 nM; in series [2], 75 nM; in series [3], 584 nM; in series [4], 589 nM; in series [5], 57000 nM. Further, the dH in series [1] was -22.3 kcal⋅mol^−1; in series [2], -11.3 kcal⋅mol^−1; in series [3], -27 kcal⋅mol^−1.

With UGUGUGUGUGUGUGUGUGUGUGUG (ssRNA) [(UG)12 RNA], the binding result with CIRBP RGG (CIRBPRGG) was “binds”.

B1: Cold-inducible RNA-binding protein (CIRBP), full length, untagged (natural protein, human, UniProt Q14011 1-172, looked up)
chain: MASDEGKLFVGGLSFDTNEQSLEQVFSKYGQISEVVVVKDRETQRSRGFGFVTFENIDDAKDAMMAMNGKSVDGRQIRVDQAGKSSDNRSRGYRGGSAGGRGFFRGGRGRGRGFSRGGGDRGYGGNRFESRSGGYGGSRDYYSSRSQSGGYSDRSSGGSYRDSYDSYATHNE
As to B1, in series [6], the Kd was determined as 289 nM and the dH is -58.6 kcal⋅mol^−1.
